Legend:
Assay in all cases: ITC
[1] = target: TplEi (Pseudomonas aeruginosa) (UniProt Q9I3K3)
[2] = target: TplEi R266A (Pseudomonas aeruginosa) (UniProt Q9I3K3)
[3] = target: TplEi S215A (Pseudomonas aeruginosa) (UniProt Q9I3K3)
[4] = target: TplEi E219A (Pseudomonas aeruginosa) (UniProt Q9I3K3)

“L” peptide W92A (from UniProt Q9I3K2 82-115)
fold reduction in binding affinity against the wild-type peptide [1]: 500 fold

A peptides (“L” peptide, TplE 82-108 plus EQVEVDD) (from UniProt Q9I3K2 82-115)
Kd [2]: 46.9 µM | Kd [3]: 7.8 µM | Kd [4]: 35.5 µM
